A short description of the series: Monkey PK model. The class given is in vivo, cynomolgus monkey. The note with it: monkey PK model estimate. From the text:
A PK model was designed as a two compartment model with intercompartmental distribution (Q) between the first compartment (Central Compartment, V1) and the second compartment (Peripheral Compartment, V2). To capture intraperitoneal (IP) or subcutaneous (SC) injection routes, a third compartment (Depot Compartment) was included with a first-order rate constant (Ka) linking the third compartment uni-directionally to the first compartment. The model also included a constant F to account for loss in the amount of drug available to diffuse from the third compartment (Depot Compartment) to the first compartment (Central Compartment, V1) due to IP or SC injection. The total amount of available drug in the third compartment (Depot Compartment) is described as F×Dose. For intravenous injections (IV), the third compartment (Depot Compartment) was omitted.
For monkeys, linear clearance from the first compartment (Central Compartment, V1) was assumed.

For “H18Y/A26E/E35D/M47L/V68M/A71G/D90G: variant CD80 IgV-Fc (inert), IgV SEQ ID NO:491”, the CL was 1.31 mL/h/kg, the F is 66.4%, the Ka was 0.728 day⁻¹ and the Q was 4.37 mL/h/kg. Also, the V1 is 0.0509 L/kg and the V2 is 0.158 L/kg.

The values are drawn from US20220177587A1, “METHODS AND USES OF VARIANT CD80 FUSION PROTEINS AND RELATED CONSTRUCTS” (Alpine Immune Sciences, Inc., priority 2018, published 2022).
